{
  "source": "patent US10532085B2",
  "about": "“Methods for increasing intracellular activity of Hsp70” (Orphazyme A/S, priority 2010, dated 2020)",
  "key": {"[1]": {"molecular_target": "T1, ASM (Homo sapiens, UniProt P17405)", "T1 construct": "made in house", "T1 sequence (P17405 47-631)": "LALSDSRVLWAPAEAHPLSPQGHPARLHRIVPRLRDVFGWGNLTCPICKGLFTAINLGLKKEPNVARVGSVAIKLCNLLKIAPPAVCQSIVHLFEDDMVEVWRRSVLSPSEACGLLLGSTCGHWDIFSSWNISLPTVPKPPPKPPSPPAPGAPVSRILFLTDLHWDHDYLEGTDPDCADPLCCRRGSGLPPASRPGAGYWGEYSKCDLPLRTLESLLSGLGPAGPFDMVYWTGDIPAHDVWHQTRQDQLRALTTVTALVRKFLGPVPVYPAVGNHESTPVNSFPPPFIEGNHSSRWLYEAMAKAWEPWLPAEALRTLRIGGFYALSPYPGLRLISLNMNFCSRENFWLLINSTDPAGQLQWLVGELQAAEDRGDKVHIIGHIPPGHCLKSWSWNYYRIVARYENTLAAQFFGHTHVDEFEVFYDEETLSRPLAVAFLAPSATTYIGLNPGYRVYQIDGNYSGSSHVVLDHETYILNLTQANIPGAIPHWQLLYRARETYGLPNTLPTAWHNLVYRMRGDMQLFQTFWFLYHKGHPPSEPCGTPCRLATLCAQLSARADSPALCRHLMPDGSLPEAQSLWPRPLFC", "assay": "BIAcore: binding of ASM to BMP-containing LUVs after rHsp70 pretreatment", "from_the_text": "(§1) BMP binds ASM with high affinity and stimulates its ability to hydrolyze sphingomyelin to ceramide and phosphorylcholine. […] In order to test whether ASM is responsible for the lysosome stabilizing effect we treated the cells with desipramine, a well characterized pharmacological ASM inhibitor. […] It should be noted that akin to rHsp70, also rASM localized to the lysosomes.\nFor preparation of LUVs a lipid mixture consisting of 10 mol % sphingomyelin, 50 mol % phosphatidylcholine, 20 mol % cholesterol and 20 mol % BMP dissolved in organic solvents, was dried under a stream of argon and rehydrated in Tris/HCl buffer (pH 7.4). The mixture was freeze-thawed nine times in liquid nitrogen and then in an incubator at 37° C. After ultrasound bath for 15 min the mixture was passed 21 times through a polycarbonate membrane with a pore diameter of 100 nm. Surface plasmon resonance measurements were performed using a BIAcore 2000 system at 25° C. LUVs (total lipid concentration 0.1 mM) were immobilized on the surface of a L1 sensor chip (BIAcore) in PBS (loading buffer). The running buffer used was sodium acetate buffer (50 mM, pH 4.5). As a control, acid sphingomyelinase (0.2 μM, 60 μl in running buffer) was injected directly on the liposome surface. Response units between 4100 RU—5250RU were obtained. […]"}, "[2]": {"tested_on": "NPDA cells", "assay": "Lysosomal stability in NPDA cells", "type": "cell-based, Human", "description": "as §1\nSub-confluent cells incubated with 2 μg/ml acridine orange for 15 min at 37° C. were washed, irradiated and analyzed in Hanks balanced salt solution complemented with 3% fetal calf serum. Cells for single cell imaging were selected from 8 pre-defined areas of each well in transmitted light-mode after which the same cells were immediately visualized and exposed to blue light from USH102 100W mercury arc burner (Ushio electric) installed in a U-ULS100HG housing (Olympus) for 20 sec. Fluorescence microscopy was performed on Olympus IX-70 inverted microscope with a LCPlanF1 ×20 objective with NA=0.40. Loss of lysosomal pH gradient was quantified by counting the loss of intense red staining. A more elaborate method for assaying lysosomal integrity was developed to handle the larger lysosomal compartment of the various fibroblasts used in this study. […] The resulting timelapse movies where subsequently analysed by the integrated Zeiss LSM DUO software."}, "[3]": {"tested_on": "NPC−/− mice", "assay": "NPC1 in vivo pilot study: video recording and observation of condition", "details": "10 mg/kg IP three times per week", "description": "(§2) Eight treated (rHSP70) NPC^−/− versus eight control (PBS only) NPC^−/− controls. Mice were treated IP three times per week with either 10 mg/kg of rHSP70 or vehicle alone (PBS) from 3 weeks of age. Three control and three treated mice were sacrificed at 7 or 9 weeks old (i.e. after 4 or 6 weeks of treatment, respectively). Organs were perfused (PBS), weighed and frozen for biochemical and immunohistochemical analysis.\nDue to the small number of animals remaining after the 7 and 9 week time points we were unable to draw any conclusions regarding increased survival."}, "[4]": {"tested_on": "NPC−/− mice", "assay": "NPC1 in vivo pilot study: tremor analysis", "details": "automated tremor monitor; particularly pronounced in the lowest frequency range", "description": "as §2\nBehavioural experiments were performed from 3 weeks of age, as described previously. Briefly, tremor analysis was performed using an automated tremor monitor (San Diego instruments) Gait analysis was performed by painting front and hind paws with non-toxic paint and allowing the mice to walk over Whatman 3M paper. Paw placement was measured to determine how closely their hind paws superimposed their front paws, the length of the stride and the width of their gait."}, "[5]": {"details": "video recording at 9 and 10 weeks"}},
  "data": [
    {"substance": "rHsp70: recombinant (human) heat shock protein 70; in some tests labelled with Alexa Fluor 488", "values": [
      {"measurement": "subsequent binding of ASM to BMP-containing LUVs", "setting": "[1]; higher rHsp70 concentrations", "value": "inhibitory effect"},
      {"measurement": "subsequent binding of ASM to BMP-containing LUVs", "setting": "[1]; pretreatment with rHsp70 at sub-equimolar concentrations", "value": "facilitated the subsequent binding of ASM"},
      {"measurement": "stabilization of lysosomes in NPDA cells", "setting": "[2]", "value": "stabilize the lysosomes"},
      {"measurement": "condition at the point of culling", "setting": "[3]", "value": "deteriorated quite badly within the space of a few days"},
      {"measurement": "activity and tremor on video", "setting": "[3]; [5]", "value": "more active and had increased tremor"},
      {"measurement": "size and coat condition", "setting": "[3]; [5]", "value": "larger, with better coat condition"},
      {"measurement": "tremor", "setting": "[4]", "value": "increased tremor from 3 weeks of treatment and remained increased until endstage"}
    ]}
  ]
}
